Assay [1] addresses hu-FCGRI (hu-CD64) (human) (UniProt P12314). The experiment in a line: SPR (ProteOn NLC chip), 25 C, pH 7.4.
Assay [2] has as its target hu-FCGRIIa (hu-CD32a) 131H (human) (UniProt P12318). Nature of the assay: SPR (ProteOn NLC chip), 25 C, pH 7.4.
Assay [3] has as its target hu-FCGRIIa (hu-CD32a) 131R (human) (UniProt P12318). Nature of the assay: SPR (ProteOn NLC chip), 25 C, pH 7.4.
Assay [4] has as its target hu-FCGRIIb (hu-CD32b) (human) (UniProt P31994). Nature of the assay: SPR (ProteOn NLC chip), 25 C, pH 7.4.
Assay [5] concerns the target Cynomolgus Monkey-FcRn (cynomolgus monkey) (UniProt Q8SPV9). The experiment in a line: SPR (ProteOn NLC chip), 25 C, pH 5.9, n = 3.
For assay [6], the target named is hu-FcRn (human neonatal Fc receptor) (human) (UniProt P55899). Nature of the assay: SPR (ProteOn NLC chip), 25 C, pH 5.9, n = 3.
The target in assay [7] is Cynomolgus Monkey-FCGRIIIa 42R (cynomolgus monkey) (UniProt Q8SPW2). Nature of the assay: SPR (ProteOn NLC chip), 25 C, pH 7.4, n = 3.
In assay [8] the target is Cynomolgus Monkey-FCGRIIIa 42S (cynomolgus monkey). The experiment in a line: SPR (ProteOn NLC chip), 25 C, pH 7.4, n = 3.
Assay [9] addresses Cynomolgus Monkey-FCGRIIa (cynomolgus monkey). Nature of the assay: SPR (ProteOn NLC chip), 25 C, pH 7.4, n = 3.
The target of assay [10] is hu-FCGRI (hu-CD64) (human) (UniProt P12314). Nature of the assay: SPR (ProteOn NLC chip), 25 C, pH 7.4, n = 4.
In assay [11] the target is T1, rat PD-1 on primary rat T cells (rat, UniProt D3ZIN8 25-287).
T1 sequence: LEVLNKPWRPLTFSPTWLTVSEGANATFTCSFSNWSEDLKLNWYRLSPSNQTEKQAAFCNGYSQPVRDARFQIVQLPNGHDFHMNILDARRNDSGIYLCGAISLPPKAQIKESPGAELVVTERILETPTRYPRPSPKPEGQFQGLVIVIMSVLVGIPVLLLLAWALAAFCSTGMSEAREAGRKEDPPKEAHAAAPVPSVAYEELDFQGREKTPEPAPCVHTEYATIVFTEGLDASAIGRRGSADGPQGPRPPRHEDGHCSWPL
Nature of the assay: FACS, naive primary rat T cells.

Assay [12] concerns the target human PD-1 on primary human T cells (human) (UniProt Q15116). The experiment in a line: FACS, naive primary human T cells.
The target in assay [13] is T1, rat PD-1 on primary rat T cells. The experiment in a line: FACS, activated primary rat T cells. On the technique in general: In flow cytometry, cells or beads pass a laser one at a time.
Assay [14] deals with human PD-1 on primary human T cells (human) (UniProt Q15116). The experiment in a line: FACS, activated primary human T cells.
The target in assay [15] is cynomolgus monkey PD-1 on primary cynomolgus monkey T cells (cynomolgus monkey) (UniProt B0LAJ3). Nature of the assay: FACS, naive primary cynomolgus monkey T cells.
For assay [16] the target is unchanged. Nature of the assay: FACS, activated primary cynomolgus monkey T cells.
The target in assay [17] is T2, human PD-1 (hPD-1) monomer (human, UniProt Q15116 25-167).
T2 construct: also called hu-PD-1; not shown: His tag (His-tagged monomer)
The experiment in a line: SPR, human PD-1, 37 C. In general terms: In SPR one partner is held on a chip, and binding of the other changes the refractive index at the surface.

Assay [18] deals with T3, hPD-1-hFc1 (R&D systems cat. no. 1086PD) (human, UniProt Q15116 25-167).
T3 construct: Bought; not shown: human IgG1 Fc (hFc1)
The experiment in a line: SPR (Biacore 2000), Fab over anti-hFc-captured PD-1-hFc1, 25 C. The procedure:
(§1) All interaction analysis was performed on label-free biosensors at 25° C. unless stated otherwise. Surface plasmon resonance biosensors (ProteOn-XPR™ from BioRad™, and Biacore 2000™ and Biacore T200™ from GE Life Sciences) were used to study human and cynomolgus monkey PD-1 and a biolayer interferometry biosensor (Octet-Red384, Fortebio/Pall Life Sciences) was used to study mouse PD-1. ProteOn experiments were performed in PBS pH 7.4+0.01% Tween-20 (PBST) running buffer. Biacore experiments were performed in 10 mM Hepes pH 7.4, 150 mM NaCl, 0.05% Tween-20 (HBST+) and Octet experiments were performed in HBST+ with 1 g/l BSA. The ProteOn data were processed in the ProteOn Manager software, the Biacore data were processed in Biaevaluation, and the Octet data were simply aligned to zero in the control software.
(§2) An anti-hFc polyclonal antibody was amine-coupled to the chip and used to capture approximately 90 RU hPD-1-hFc1 and 125 RU cynoPD-1-hFc1 on flow cells 2 and 3, leaving flow cell 1 blank (naked anti-hFc capture surface) to provide a reference channel. Recombinant purified Fabs were injected for two min as analyte at 0, 10, and 100 nM over freshly captured PD-1-hFc1 fusion proteins, allowing a 15-min dissociation time.

Assay [19] addresses T4, cynoPD-1-hFc1 (prepared in-house) (cynomolgus monkey; human, UniProt B0LAJ3 25-170). Described as above. The procedure:
as §1, §2

The target in assay [20] is T3, hPD-1-hFc1 (R&D systems cat. no. 1086PD). Nature of the assay: SPR (Biacore 2000), Fab over anti-hFc-captured PD-1-hFc1, 25 C; 5% rule. The method, then:
as §2

The target of assay [21] is T4, cynoPD-1-hFc1 (prepared in-house). The assay is described as above. The procedure: as §2
The target in assay [22] is T2, human PD-1 (hPD-1) monomer. The experiment in a line: SPR, human PD-1, 25 C.
Assay [23] deals with T2, human PD-1 (hPD-1) monomer. Nature of the assay: SPR (ProteOn), hPD-1 monomer over amine-coupled IgG, 25 C. The method, then: as §1
(§3) The surfaces for these experiments were prepared in three steps; (1) the ligand channels were minimally activated for two min using a freshly prepared mixture of the activation reagents at final 0.8 mM EDC and 0.2 mM sulfo-NHS in water, (2) the IgGs were coupled for three min at 15 μg/ml in 10 mM sodium acetate pH 4.5, and (3) excess reactive esters were blocked for three min with 1 M ethanolamine HCl pH 8.5. […] Association and dissociation times were 3 min and 20 min, respectively and all analytes were injected in duplicate binding cycles. Surfaces were regenerated with a cocktail of 2:1 v/v Pierce IgG elution buffer (pH 2.8):4 M NaCl.

Assay [24] deals with T2, human PD-1 (hPD-1) monomer. The experiment in a line: SPR (ProteOn), hPD-1 monomer over amine-coupled IgG, 25 C; 5% rule. The method, then: as §3
N=2 refers to two independent experiments on different chips.

Assay [25] addresses T2, human PD-1 (hPD-1) monomer. Nature of the assay: SPR (Biacore T200), hPD-1 monomer over anti-hFc-captured hIgG4, 25 C. The method, then: as §1
(§4) The hPD-1 was injected at active concentrations of 0, 10, and 100 nM for three minutes allowing an 18-min dissociation phase. The capture surfaces were regenerated with 75 mM phosphoric acid after each binding cycle.

Assay [26] addresses T2, human PD-1 (hPD-1) monomer. Nature of the assay: SPR (Biacore T200), hPD-1 monomer over anti-hFc-captured hIgG4, 37 C. The method, then: as §4
Assay [27] has as its target T1, rat PD-1 on primary rat T cells. Nature of the assay: flow cytometry, activated rat T cells.
Assay [28] concerns the target mouse-PD-L1 (positive control of Example 12) (mouse, UniProt Q9EP73 19-238, limits assumed). The experiment in a line: SPR, 25 C.
Assay [29] has as its target T5, mouse-PD-L2 (positive control of Example 12) (mouse, UniProt Q9WUL5 20-219, limits assumed).
T5 sequence (looked up): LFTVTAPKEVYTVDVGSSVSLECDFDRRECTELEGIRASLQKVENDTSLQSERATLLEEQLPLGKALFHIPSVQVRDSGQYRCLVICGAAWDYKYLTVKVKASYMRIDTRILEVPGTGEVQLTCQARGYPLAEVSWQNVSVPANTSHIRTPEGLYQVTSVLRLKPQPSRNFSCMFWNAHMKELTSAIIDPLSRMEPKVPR
Nature of the assay: SPR, 25 C.

Residue numbers refer to the chain shown, from its start. Where only a bound is given, the exact number is not on record here.

T4 sequence (B0LAJ3 entry or part of it limits assumed): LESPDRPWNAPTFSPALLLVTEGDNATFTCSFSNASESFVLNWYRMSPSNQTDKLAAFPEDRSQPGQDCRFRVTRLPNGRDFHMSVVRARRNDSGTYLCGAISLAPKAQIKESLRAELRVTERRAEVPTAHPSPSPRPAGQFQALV
Chain of hu-FCGRI (hu-CD64) (human) (P12314 16-288 limits assumed): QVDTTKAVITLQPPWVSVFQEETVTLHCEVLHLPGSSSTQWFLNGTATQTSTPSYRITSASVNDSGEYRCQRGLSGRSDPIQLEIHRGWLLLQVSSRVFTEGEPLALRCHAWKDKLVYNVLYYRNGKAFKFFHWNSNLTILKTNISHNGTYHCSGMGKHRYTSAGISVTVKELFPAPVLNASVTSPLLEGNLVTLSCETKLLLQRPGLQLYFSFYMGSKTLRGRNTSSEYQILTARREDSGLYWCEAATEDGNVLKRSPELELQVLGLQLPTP
T3 sequence (Q15116 25-167 limits assumed): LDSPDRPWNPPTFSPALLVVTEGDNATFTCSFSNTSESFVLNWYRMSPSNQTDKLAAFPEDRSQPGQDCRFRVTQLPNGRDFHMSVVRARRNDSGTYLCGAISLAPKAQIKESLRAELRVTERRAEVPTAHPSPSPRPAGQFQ
T2 sequence (Q15116 25-167 limits assumed): as above
Chain of human PD-1 on primary human T cells (human) (Q15116 25-288 limits assumed): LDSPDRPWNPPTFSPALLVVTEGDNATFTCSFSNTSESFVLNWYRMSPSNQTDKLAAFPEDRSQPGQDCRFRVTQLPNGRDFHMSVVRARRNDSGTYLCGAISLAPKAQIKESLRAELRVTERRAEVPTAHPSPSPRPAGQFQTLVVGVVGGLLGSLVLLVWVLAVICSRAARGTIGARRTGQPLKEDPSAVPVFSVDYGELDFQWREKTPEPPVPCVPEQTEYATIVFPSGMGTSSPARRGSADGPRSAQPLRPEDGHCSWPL
Chain of cynomolgus monkey PD-1 on primary cynomolgus monkey T cells (cynomolgus monkey) (B0LAJ3 entry or part of it limits assumed): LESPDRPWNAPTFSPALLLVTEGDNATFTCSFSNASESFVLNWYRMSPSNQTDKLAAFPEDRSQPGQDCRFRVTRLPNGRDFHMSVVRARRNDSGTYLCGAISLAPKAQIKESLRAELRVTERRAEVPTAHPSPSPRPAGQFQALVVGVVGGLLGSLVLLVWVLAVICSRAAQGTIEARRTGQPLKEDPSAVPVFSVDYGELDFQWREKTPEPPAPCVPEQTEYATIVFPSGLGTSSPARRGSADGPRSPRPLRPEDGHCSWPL
Chain of hu-FcRn (human neonatal Fc receptor) (human) (P55899 24-297 limits assumed, chain 1 of 2): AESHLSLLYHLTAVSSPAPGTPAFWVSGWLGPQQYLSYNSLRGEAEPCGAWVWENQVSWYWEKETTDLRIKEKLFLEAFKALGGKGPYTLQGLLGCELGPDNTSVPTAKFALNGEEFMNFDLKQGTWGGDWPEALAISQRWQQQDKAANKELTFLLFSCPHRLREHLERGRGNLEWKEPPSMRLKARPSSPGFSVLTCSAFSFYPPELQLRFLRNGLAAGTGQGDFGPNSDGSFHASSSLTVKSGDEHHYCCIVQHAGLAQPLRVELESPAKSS
Chain of hu-FcRn (human neonatal Fc receptor) (human) (chain, as listed by the source limits assumed, chain 2 of 2): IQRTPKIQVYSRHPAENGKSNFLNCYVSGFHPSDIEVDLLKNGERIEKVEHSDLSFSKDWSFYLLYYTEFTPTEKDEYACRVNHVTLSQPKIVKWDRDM
Chain of hu-FCGRIIb (hu-CD32b) (human) (P31994 46-217): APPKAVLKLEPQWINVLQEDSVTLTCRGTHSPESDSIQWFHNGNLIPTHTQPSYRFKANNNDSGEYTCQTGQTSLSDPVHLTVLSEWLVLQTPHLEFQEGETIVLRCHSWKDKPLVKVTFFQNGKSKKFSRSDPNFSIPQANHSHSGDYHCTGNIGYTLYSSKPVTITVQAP
Chain of Cynomolgus Monkey-FcRn (cynomolgus monkey) (Q8SPV9 24-297 limits assumed, form in doubt): as the sequence (P55899 24-297 limits assumed, chain 1 of 2) above, with N39D, E44Q, G99S, S189G, S190N, L217M, S269T counted along it
Chain of hu-FCGRIIa (hu-CD32a) 131H (human) (P12318 36-218): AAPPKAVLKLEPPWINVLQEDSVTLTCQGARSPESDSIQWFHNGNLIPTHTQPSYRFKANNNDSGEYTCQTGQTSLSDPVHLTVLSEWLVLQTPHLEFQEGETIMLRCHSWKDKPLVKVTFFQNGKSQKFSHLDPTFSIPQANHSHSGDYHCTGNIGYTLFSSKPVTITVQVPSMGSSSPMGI
Chain of Cynomolgus Monkey-FCGRIIIa 42R (cynomolgus monkey) (Q8SPW2 17-208 limits assumed): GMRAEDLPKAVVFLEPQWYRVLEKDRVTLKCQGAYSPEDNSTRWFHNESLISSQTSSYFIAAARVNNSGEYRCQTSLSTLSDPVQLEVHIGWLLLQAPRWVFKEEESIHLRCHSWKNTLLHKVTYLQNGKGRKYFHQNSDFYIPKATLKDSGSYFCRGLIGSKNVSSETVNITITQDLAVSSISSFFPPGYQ
Chain of hu-FCGRIIa (hu-CD32a) 131R (human) (P12318 36-218 H167R): as the sequence (P12318 36-218) above, with H132R counted along it

As to “Isotype-matched control, hu-IgG4 (antibody)”, in [1], the koff (usually the rate constant with which the complex falls apart) came to 0.0018 s⁻¹. The kon (usually a measure of how fast the partners come together) in [1] was found to be 1e+06 M⁻¹ s⁻¹. The Kd (commonly the constant that tells how readily two partners part at equilibrium) in assay [2] came to 3900 nM; in assay [3] it was 400 nM; in assay [4], 700 nM; in assay [5] it was 570 nM; in assay [6] it was 820 nM; in assay [7], 3200 nM. Also, the Kd in assay [8] was determined as 1900 nM; in assay [9], 2600 nM; in [10], 0.177 nM.

For the molecule “Negative control antibody (anti-bovine herpes virus, IgG4-HG framework)”, the % Binding in assay [11] was 0.82%; in assay [12], 3.49%; in assay [13] it was 4.36%; in [14], 4.75%; in assay [15], 5.38%; in assay [16], 4.67%.

B1: mAb4 (antibody, V domains shown)
VH: QVQLVQSGAEVKKPGASVKVSCKASGYTFTSYWINWVRQAPGQGLEWMGNIYPGSSLTNYNEKFKNRVTMTRDTSTSTVYMELSSLRSEDTAVYYCARLLTGTFAYWGQGTLVTVSS
VL: DIVMTQSPDSLAVSLGERATINCKSSQSLWDSTNQKNFLTWYQQKPGQPPKLLIYWTSTRESGVPDRFSGSGSGTDFTLTISSLQAEDVAVYYCQNDYFYPLTFGGGTKVEIK
notes: Variable regions only
For B1, binding in [17] was put at a Kd of 89 nM.

B2: mAb7 Fab (Fab, V domains shown)
VH: B1 VH with L100S
VL: B1 VL with T33G, T59Y, L102H
In the case of B2, the Kd in [18] was less than 0.101 nM; in assay [19], less than 0.108 nM. The kon in assay [18] came out at 567000 M⁻¹ s⁻¹; in [19], 526000 M⁻¹ s⁻¹. Also, the koff in [20] and in [21] was less than 5.7e-05 s⁻¹ each time.

B3: mAb15 (human IgG4 kappa, hinge stabilized) (antibody, V domains shown)
VH: B1 VH with Y52W
VL: B1 VL with T33G, T59Y, L102H
notes: also called mAb15-G4; mAb15 (G4)
Consider B3, for which the Kd was 0.49 nM in assay [22], less than 0.058 nM in assay [23], 0.49 nM in [25] and 0.54 nM in assay [26]. Further, the kon in assay [23] was found to be 732000 M⁻¹ s⁻¹; in assay [25], 349000 M⁻¹ s⁻¹; in [26], 694000 M⁻¹ s⁻¹. Further, the values for the koff in assay [24], in assay [25] and in [26] were less than 4.3e-05 s⁻¹, 0.000171 s⁻¹ and 0.000373 s⁻¹, respectively.

B4: mAb15 Fab (Fab, V domains shown)
VH: B1 VH with Y52W
VL: B1 VL with T33G, T59Y, L102H
Turning to B4, the Kd in assay [18] is less than 0.062 nM; in assay [19] it was less than 0.069 nM. Besides, the results for the kon in [18] and in assay [19] were 916000 M⁻¹ s⁻¹ and 824000 M⁻¹ s⁻¹, respectively. In addition, the koff in assay [20] and in assay [21] was less than 5.7e-05 s⁻¹ in each case.

B5: Rat-PD-L1-Fc-Tag (Creative BioMart) (Fc fusion, not shown: a dimerising Fc or GST; small tags and cut ends)
chain: FTITAPKDLYVVEYGSNVTMECRFPVEQKLDLLALVVYWEKEDKEVIQFVEGEEDLKPQHSSFRGRAFLPKDQLLKGNAVLQITDVKLQDAGVYCCMISYGGADYKRITLKVNAPYRKINQRISMDPATSEHELMCQAEGYPEAEVIWTNSDHQSLSGETTVTTSQTEEKLLNVTSVLRVNATANDVFHCTFWRVHSGENHTAELIIPELPVPRLPHNRTH
Regarding B5, in assay [27], the binding result was “binds”.

B6: rat-PD-1 (recombinant purified, Example 12) (receptor)
chain: LEVLNKPWRPLTFSPTWLTVSEGANATFTCSFSNWSEDLKLNWYRLSPSNQTEKQAAFCNGYSQPVRDARFQIVQLPNGHDFHMNILDARRNDSGIYLCGAISLPPKAQIKESPGAELVVTERILETPTRYPRPSPKPEGQFQGL
Consider B6, for which the binding result in [28] and in [29] was “binds” in each case.

These data come from patent US20190083612A1 (RINAT NEUROSCIENCE, published 2019).
